Laboratory results from patent US20200002710A1, “SYSTEMS AND METHODS FOR CONTROL OF GENE EXPRESSION” (TRUSTEES OF BOSTON UNIVERSITY, published 2020).
Substitutions are numbered along the chain they refer to.

Key:
[1] = test system: 43-8 low affinity synTF + 3x syntrophin PDZ clamp (artificial); experiment: FP; conditions: nH 2.55; synTF titration with 3-PDZ clamp
[2] = target: T1, 42-10 (ZF2) low affinity synTF (artificial, R-to-A backbone (low affinity allele, already in ref)); experiment: FP; fluorescence anisotropy competition; Zn2+, 25 C; conditions: tags: N-terminal MBP; C-terminal GS linker + syntrophin ligand S5 (VKESLV)
T1 chain: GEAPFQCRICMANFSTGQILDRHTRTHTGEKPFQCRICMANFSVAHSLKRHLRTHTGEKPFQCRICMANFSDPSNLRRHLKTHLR
Protocol: (§1) Sequences for both sets of DBM affinity variants are listed on the right. Residues mutated from the WT sequence are indicated by bold type.
(§2) All assays were conducted in 20 mM Tris, pH 7.5, 100 mM […], 50 μM ZnCl2 buffer at 25° C. Proteins, probes, and competitor oligos were added to a final volume of 300 μL. Probes were used at 10 nM in all experiments. For complex assembly experiments (FIG. 1C), indicated concentrations of MBP-ZF₄₃₋₈ harboring a VSKESLV* ligand (SEQ ID NO: 120) (see e.g., FIG. 5A-FIG. 5B, FIG. 7A-FIG. 7B) were titrated against 5 μM concentrations of clamp. Mixtures were allowed to equilibrate at 25° C. for 10 min in Costar black 96-well plates prior to reading. Fluorescence anisotropy (FA) measurements were made at 494 nm using a SpectraMax M5 (Molecular Devices) fluorescence plate reader. For all measurements, anisotropy (r) was calculated using the following equation, wherein I_{∥} and I_{⊥} are parallel and perpendicular fluorescence, respectively:
(§3) TF-DBM binding constants were measured in vitro by fluorescence anisotropy (FA). Recombinant proteins were purified and DBM oligos prepared as described herein. […] Affinities for the interaction were measured as a function of the increase in fluorescence anisotropy resulting from binding of the fusion to a fluorescently labeled (FITC) oligo probe (data not shown). Oligo probe binding to ZF affinity variants was measured. MBP-ZF was titrated against 10 nM oligo probe. […] Kd values were extracted by fitting data to a quadratic binding equation (data not shown). Competition binding experiments were performed to measure binding constants for DBM affinity variants.

[3] = target: T2, 43-8 (ZF1) low affinity synTF (artificial, R-to-A backbone (low affinity allele, already in ref)); experiment: as above; conditions: tags: N-terminal MBP; C-terminal GS linker + syntrophin ligand S5 (VKESLV)
T2 chain: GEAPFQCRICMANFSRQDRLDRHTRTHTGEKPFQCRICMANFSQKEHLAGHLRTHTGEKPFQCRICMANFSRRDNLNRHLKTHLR
Protocol: as §1, §2, §3

[4] = target: T3, 43-8 (ZF1) high affinity synTF (artificial); experiment: as above; conditions: tags: N-terminal MBP; C-terminal GS linker + syntrophin ligand S5 (VKESLV)
T3 chain: T2 chain with A3R
Protocol: as §1, §2, §3

[5] = target: T4, MBP-erb. (MBP fusion of the erbin PDZ domain) (Mus musculus (Mouse), UniProt Q80TH2 1304-1387, limits assumed); experiment: fluorescence anisotropy competition; 43-8 synTF-ligand fusion titrated against MBP-erbin PDZ and FITC peptide probe
T4 construct: also called MBP-PDZ; pCB425
T4 chain: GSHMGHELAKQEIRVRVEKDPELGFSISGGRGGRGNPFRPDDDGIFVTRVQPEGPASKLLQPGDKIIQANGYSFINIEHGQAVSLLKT
Protocol: (§4) Probe concentration was assessed by measuring Abs490. Competitor peptides were purified as MBP-ZF43-8 fusions (see e.g., FIG. 5A-FIG. 5B, FIG. 7A-FIG. 7B).
as §2
(§5) PDZ-ligand binding constants were measured in vitro by fluorescence anisotropy. Recombinant proteins were purified as described herein. […] Peptide probe binding to PDZ domain was measured. […] Kₐ values were extracted by fitting data to a quadratic binding equation (data not shown). Competition binding experiments were conducted to measure binding constants for ligand affinity variants. […] accompanying displacement of the probe by the competitor was measured, and competitor ligand Kd values were extracted by fitting data (converted to fraction probe bound) to a cubic equation describing competitive binding (see e.g., FIG. 7A).

[6] = target: T5, MBP-syn. (MBP fusion of the syntrophin PDZ domain) (UniProt Q28626 83-177); experiment: thermodynamic model fit; model-fitted
T5 chain: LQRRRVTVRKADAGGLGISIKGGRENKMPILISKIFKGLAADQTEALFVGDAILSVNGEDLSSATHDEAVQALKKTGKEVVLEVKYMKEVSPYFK

[7] = target: T6, MBP-syn. (MBP fusion of the syntrophin PDZ domain) (Oryctolagus cuniculus (Rabbit), UniProt Q28626 83-177); experiment: fluorescence anisotropy competition; 43-8 synTF-ligand fusion titrated against MBP-syntrophin PDZ and FITC-VKESLV probe
T6 construct: Used as an MBP fusion in the PDZ-ligand anisotropy assays; also called MBP-PDZ; pCB378
T6 sequence: T5 chain
Protocol: as §4, §2, §5

[8] = target: T4, MBP-erb. (MBP fusion of the erbin PDZ …); experiment: fluorescence anisotropy competition (nb indicates no binding)
Protocol: as §4, §2, §5

[9] = target: T6, MBP-syn. (MBP fusion of the syntrophin …); experiment: as above
Protocol: as §4, §2, §5

[10] = target: T5, MBP-syn. (MBP fusion of the syntrophin …); experiment: fluorescence anisotropy competition; experimentally-measured
[11] = target: T2, 43-8 (ZF1) low affinity synTF; experiment: FP; no clamp; nH 1.07; conditions: tags: N-terminal MBP; C-terminal GS linker + syntrophin ligand S5 (VKESLV); label: fluorescein on bottom-strand thymidine
Protocol: as §2, with “respectively: […]” for “respectively:”

[12] = target: T7, 42-10 (ZF2) high affinity synTF (artificial); experiment: FP; fluorescence anisotropy competition; 20 mM Tris pH 7.5, 100 mM NaCl, 50 uM ZnCl2, 25 C; conditions: tags: N-terminal MBP; C-terminal GS linker + syntrophin ligand S5 (VKESLV)
T7 chain: T1 chain with A3R
Protocol: as §1, §2
TF-DBM binding constants were measured in vitro by fluorescence anisotropy (FA). Recombinant proteins were purified and DBM oligos prepared as described herein. […] Affinities for the interaction were measured as a function of the increase in fluorescence anisotropy resulting from binding of the fusion to a fluorescently labeled (FITC) oligo probe (data not shown). Oligo probe binding to ZF affinity variants was measured. […]

[13] = target: T2, 43-8 (ZF1) low affinity synTF; experiment: FP; fluorescence anisotropy; Zn2+, 25 C; conditions: tags: N-terminal MBP; C-terminal GS linker + syntrophin ligand S5 (VKESLV)
Protocol: as §2
as §3, with “variants. […] Competitor oligo Kₐ values were extracted by fitting data (converted to fraction probe bound) to a cubic equation describing competitive binding (see e.g., FIG. 6). Sequences for both sets of DBM affinity variants are listed on the right of FIG. 6.” for “variants.”

[14] = target: T3, 43-8 (ZF1) high affinity synTF; experiment: FP; fluorescence anisotropy; Zn2+, 25 C; conditions: tags: N-terminal MBP; C-terminal GS linker + syntrophin ligand S5 (VKESLV)
Protocol: as §2
as §3, with “variants. […] Competitor oligo Kₐ values were extracted by fitting data (converted to fraction probe bound) to a cubic equation describing competitive binding (see e.g., FIG. 6). Sequences for both sets of DBM affinity variants are listed on the right of FIG. 6.” for “variants.”

With “GAATTCGTCCTCACTCTTCGGTCCTCACTCTTCGGTCCTCACTCTGGATCC (double strand) [43-8 nc=3 probe]” the EC50 [1] was 5.1 nM.

B1: 42-10 DBM4 (dsDNA)
DNA 1: ACACGCTGCTC
DNA 2: GAGCAGCGTGT
B1 gave a Kd [2] of 67 nM.

B2: 43-8 DBM2 (dsDNA)
DNA 1: ACAGTGAGGAC
DNA 2: GTCCTCACTGT
B2 gave a Kd [3] of 143 nM and a Kd [4] of 30 nM.

B3: 42-10 DBM5 (dsDNA)
DNA 1: AGACGCTACTC
DNA 2: GAGTAGCGTCT
With B3 the Kd [2] was 95 nM.

B4: MBP-43-8(low)-syn. lig. (S4) (other, not shown: large carriers)
chain: GEAPFQCRICMANFSRQDRLDRHTRTHTGEKPFQCRICMANFSQKEHLAGHLRTHTGEKPFQCRICMANFSRRDNLNRHLKTHLRGSGSGIRETIV
notes: also called IRETIV; pCB384
B4 gave a Kd [5] of 3460 nM, a Kd [6] of 400 nM and a Kd [7] of 880 nM.

B5: MBP-43-8(low)-syn. lig. (S1) (other, not shown: large carriers)
chain: B4 chain with V96I
notes: also called IRETII; pCB380
In the case of B5, the binding result [8] is reported as “no binding” and the Kd [7] is reported as 62 nM.

B6: 43-8 synTF with appended erbin ligand E2 (WLKTWV) (other, not shown: large carriers)
chain: B4 chain with I91W, R92L, E93K, I95W
With B6 the Kd [5] was 330 nM and the binding result [9] was “no binding”.

B7: MBP-43-8(low)-syn. lig. (S7) (other, not shown: large carriers)
chain: B4 chain with I91H, R92L, I95F, V96F
notes: also called HLETFF; pCB387
In the case of B7, the binding result [8] is reported as “no binding” and the Kd [7] is reported as 43200 nM.

B8: MBP-43-8(low)-syn. lig.(no bind) (other, not shown: large carriers; small tags and cut ends)
chain: B4 chain with I91V, R92K, T94A, I95A, V96A
notes: also called VKEAAA; nb
B8: no binding [8].

B9: MBP-43-8(low)-syn. lig. (S3) (other, not shown: large carriers)
chain: B4 chain with E93W
notes: also called IRWTIV; pCB382
In the case of B9, the Kd [5] is reported as 1730 nM and the Kd [7] is reported as 490 nM.

B10: MBP-43-8(low)-syn. lig. (S5) (other, not shown: large carriers)
chain: B4 chain with I91V, R92K, T94S, I95L
notes: also called VKESLV; pCB385
Molecule B10 has a Kd [5] of 5710 nM, a Kd [6] of 2050 nM and a Kd [7] of 1970 nM.

B11: MBP-43-8(low)-syn. lig. (S6) (other, not shown: large carriers)
chain: B4 chain with I91V, R92K, T94A, I95L
notes: also called VKEALV; pCB386
B11 was tested, and the binding result [8] was “no binding”, the Kd [10] was 20300 nM and the Kd [7] was 27300 nM.

B12: 43-8 synTF with appended erbin ligand E1 (WLVTWV) (other, not shown: large carriers)
chain: B4 chain with I91W, R92L, E93V, I95W
In the case of B12, the Kd [5] is reported as 100 nM and the binding result [9] is reported as “no binding”.

B13: MBP-43-8(low)-syn. lig. (S2) (other, not shown: large carriers)
chain: B4 chain with V96L
notes: also called IRETIL; pCB381
With B13 the binding result [8] was “no binding” and the Kd [7] was 180 nM.

B14: 43-8 synTF with appended erbin ligand E3 (PVDSWV) (other, not shown: large carriers)
chain: B4 chain with I91P, R92V, E93D, T94S, I95W
B14 gave a Kd [5] of 420 nM and a Kd [7] of 1570 nM.

B15: 43-8 DBM3 (dsDNA)
DNA 1: ATAGTGAGGAC
DNA 2: GTCCTCACTAT
Molecule B15 has a Kd [3] of 224 nM and a Kd [4] of 42 nM.

B16: 42-10 DBM6 (dsDNA)
DNA 1: AGACGCTGCTA
DNA 2: TAGCAGCGTCT
Work on B16 yielded a Kd [2] of 218 nM.

B17: 42-10 DBM3 (dsDNA)
DNA 1: AGACGGTGCTC
DNA 2: GAGCACCGTCT
For B17, the Kd [2] was 32 nM.

B18: 43-8 nc=2 probe (dsDNA)
DNA 1: GAATTCGTCCTCACTCTTCGGTCCTCACTCTGGATCC
DNA 2: GGATCCAGAGTGAGGACCGAAGAGTGAGGACGAATTC
Molecule B18 has an EC50 [11] of 210 nM.

B19: 42-10 DBM2 (dsDNA)
DNA 1: TGACGCTGCTT
DNA 2: AAGCAGCGTCA
B19 was tested, and the Kd [12] was 0.94 nM and the Kd [2] was 5.2 nM.

B20: 43-8 DBM1 (dsDNA)
DNA 1: AGAGTGAGGAC
DNA 2: GTCCTCACTCT
Molecule B20 has a Kd [13] of 13.6 nM and a Kd [14] of 6.5 nM.

B21: 42-10 DBM7 (dsDNA)
DNA 1: AGACTCTGCTC
DNA 2: GAGCAGAGTCT
With B21 the Kd [2] was 415 nM.
